Experiment [1] has as its target T1, human CD3 (human, UniProt P07766 23-207; P04234 22-171; P09693 23-182).
T1 construct: also called CD3 on human CD3-expressing Jurkat cells; CD3 on human T cells; copies: 2 + 1 + 1
Put plainly: flow cytometry (FACS) on Jurkat cells. On the procedure:
(§1) Briefly, 2×10⁵ cells/well of human CD3-expressing Jurkat, cynomolgus T, or human PSMA-specific expressing cells were incubated with a serial dilution of bispecific antibodies for 30 min at 4° C. After incubation, cells were washed and a goat F(ab′)₂ anti-human Fcγ PE labeled secondary (Jackson Immunolabs) was added to the cells for an additional 30 min. Next, cells were washed, re-suspended in cold PBS+1% BSA and analyzed via flow cytometry on a BD FACS Canto II.
(§2) For FACS analysis, cells were gated by forward scatter height vs. forward scatter area for single events selection, followed by side and forward scatters. The EC₅₀ for cell binding titration was determined using Prism software. Values were calculated using 4-parameter non-linear regression analysis.
For orientation: Flow cytometry measures light scatter and fluorescence of single cells or particles in a stream.

Experiment [2] deals with T2, human prostate-specific membrane antigen (PSMA) (human, UniProt Q04609 1-750).
T2 construct: whole, on cells; also called hPSMA; FOLH1
Put plainly: flow cytometry (FACS) on B16F10.9/PSMA cells. Here is the method:
as §1, §2

Experiment [3] deals with T1, human CD3. Kind of experiment: cell-based or functional assay.
Experiment [4] deals with T2, human prostate-specific membrane …. Kind of experiment: cell-based or functional assay.
The target of the next experiment is T3, cynomolgus CD3 (cynomolgus).
T3 construct: whole, on cells; also called CD3 on cynomolgus T cells; Cyno T-cells
Put plainly: flow cytometry (FACS) on cynomolgus T cells. On the procedure:
as §1, §2

Experiment [5] deals with T4, soluble heterodimeric hCD3 mFc protein (human).
T4 construct: Heterodimer of two different CD3 chains fused to mFc; the names of the subunits seem to have been lost in the printed text ('hCD3 mFc'); also called soluble heterodimeric CD3 protein; Soluble Human CD3
Put plainly: SPR at 37° C., antigen-capture format, MASS-1. Here is the method: Measurements were conducted on a Sierra Sensors MASS-1 instrument.
In the antigen-capture format, the MASS-1 high-density amine sensor surface was derivatized with a goat anti-mouse IgG2a polyclonal antibody (Southern Biotech). Soluble heterodimeric CD3 protein was captured and the respective antibodies were injected over the captured antigen.
Kinetic association (kₐ) and dissociation (kd) rate constants were determined by processing and fitting the data to a 1:1 binding model using MASS-1 AnalyserR2 curve fitting software. Binding dissociation equilibrium constants (KD) and dissociative half-lives (t_{1/2}) were calculated from the kinetic rate constants as: KD (M)=kd/kₐ; and t_{1/2} (min) (In2/(60*kd).

We go through two molecules from patent US20250304714A1 (Regeneron, published 2025).

Changes are numbered by the printed parent chain.

T2 sequence (Q04609 whole entry): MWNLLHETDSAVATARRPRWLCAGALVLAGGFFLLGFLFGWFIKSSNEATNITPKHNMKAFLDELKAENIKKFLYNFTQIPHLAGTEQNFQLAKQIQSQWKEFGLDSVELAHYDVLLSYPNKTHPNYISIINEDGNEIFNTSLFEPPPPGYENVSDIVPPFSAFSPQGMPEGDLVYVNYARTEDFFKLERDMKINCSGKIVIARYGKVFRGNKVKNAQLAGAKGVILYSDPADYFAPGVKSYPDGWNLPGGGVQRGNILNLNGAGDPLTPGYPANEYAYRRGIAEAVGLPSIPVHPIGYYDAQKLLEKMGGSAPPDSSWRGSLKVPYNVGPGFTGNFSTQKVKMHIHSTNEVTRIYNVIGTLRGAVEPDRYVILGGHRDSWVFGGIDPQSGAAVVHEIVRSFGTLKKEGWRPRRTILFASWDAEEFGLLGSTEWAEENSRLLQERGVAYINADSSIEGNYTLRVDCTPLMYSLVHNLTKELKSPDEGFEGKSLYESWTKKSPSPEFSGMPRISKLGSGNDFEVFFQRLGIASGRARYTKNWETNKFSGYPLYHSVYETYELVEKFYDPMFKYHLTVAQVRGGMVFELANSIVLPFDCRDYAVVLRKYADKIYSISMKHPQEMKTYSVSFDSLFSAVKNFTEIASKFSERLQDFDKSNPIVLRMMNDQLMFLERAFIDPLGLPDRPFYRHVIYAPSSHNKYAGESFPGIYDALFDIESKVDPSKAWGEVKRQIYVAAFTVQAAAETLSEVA
T1 sequence (P07766 23-207 limits assumed, chain 1 of 3): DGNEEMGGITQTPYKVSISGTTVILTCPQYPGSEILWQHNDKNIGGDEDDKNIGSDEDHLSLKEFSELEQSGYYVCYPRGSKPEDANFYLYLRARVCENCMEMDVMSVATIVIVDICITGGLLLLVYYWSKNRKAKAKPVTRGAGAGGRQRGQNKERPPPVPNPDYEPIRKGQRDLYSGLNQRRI
T1 sequence (P04234 22-171 limits assumed, chain 2 of 3): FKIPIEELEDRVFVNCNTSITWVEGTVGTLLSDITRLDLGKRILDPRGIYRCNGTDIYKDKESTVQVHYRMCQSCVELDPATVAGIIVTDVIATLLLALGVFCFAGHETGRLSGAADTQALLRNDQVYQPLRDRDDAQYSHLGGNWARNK
T1 sequence (P09693 23-182 limits assumed, chain 3 of 3): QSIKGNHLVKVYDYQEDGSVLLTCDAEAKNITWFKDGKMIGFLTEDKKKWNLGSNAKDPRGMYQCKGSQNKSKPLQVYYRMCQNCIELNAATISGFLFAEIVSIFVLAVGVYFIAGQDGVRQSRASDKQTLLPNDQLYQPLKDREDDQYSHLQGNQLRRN
T4 sequence (P07766 23-126, chain 1 of 2): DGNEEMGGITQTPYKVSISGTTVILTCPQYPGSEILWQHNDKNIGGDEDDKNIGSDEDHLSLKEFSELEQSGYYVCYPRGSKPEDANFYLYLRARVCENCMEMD
T4 sequence (P04234 22-105, chain 2 of 2, further chain): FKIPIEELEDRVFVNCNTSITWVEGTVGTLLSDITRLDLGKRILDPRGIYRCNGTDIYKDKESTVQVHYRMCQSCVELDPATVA
T3 sequence (Q95LI5 22-198, chain 1 of 3): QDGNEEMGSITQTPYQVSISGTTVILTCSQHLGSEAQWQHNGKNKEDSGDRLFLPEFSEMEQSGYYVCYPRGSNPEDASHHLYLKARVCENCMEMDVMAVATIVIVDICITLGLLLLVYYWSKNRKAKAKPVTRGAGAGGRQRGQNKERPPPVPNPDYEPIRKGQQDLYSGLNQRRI
T3 sequence (Q95LI8 22-171, chain 2 of 3, further chain): as the sequence (P04234 22-171 limits assumed, chain 2 of 3) above, with I5V, N15K, I20V, S32T, D33N, I34N, T64A, S74N, V83L, H141R counted along it
T3 sequence (Q95LI7 23-181, chain 3 of 3, further chain): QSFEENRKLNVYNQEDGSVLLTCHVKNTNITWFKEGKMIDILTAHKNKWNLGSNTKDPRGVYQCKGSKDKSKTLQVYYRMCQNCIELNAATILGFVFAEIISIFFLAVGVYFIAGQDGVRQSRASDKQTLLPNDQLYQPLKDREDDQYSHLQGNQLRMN

B1: PSMA/CD3-001 (bispecific antibody, V domains shown)
VH 1: QVQLVESGGGVVQPGRSLRLSCAASGFTFSSYGMHWVRQAPGKGLEWVAVISYAGNNKYYADSVKGRFTVSRDNSKKTLYLQMNSLRSEDTAVYYCAKDSYYDFLTDPDVLDIWGQGTMVTVSS
VH 2: EVQLVESGGGLVQPGRSLRLSCAASGFTFDDYSMHWVRQAPGKGLEWVSGISWNSGSIGYADSVKGRFTISRDNAKNSLYLQMNSLRAEDTALYYCAKDGSGYGKFYYYGMDVWGQGTTVTVSS
VL: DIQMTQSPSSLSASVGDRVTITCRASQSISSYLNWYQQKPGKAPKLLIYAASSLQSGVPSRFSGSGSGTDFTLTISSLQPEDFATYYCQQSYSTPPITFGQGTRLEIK
notes: also called anti-PSMA x anti-CD3 bispecific antibody with anti-CD3 arm CD3-VH-G5
One may read the EC50 as the concentration at which the effect is half-maximal. Take B1: in the experiment with human CD3 [1], the EC50 is around 1000 nM. The same molecule showed an EC50 in experiment [2] of 1.31 nM. Also, the “T cell activation EC50 [M] (percent CD69+ of CD2+ T cells)” value in the experiment with human CD3 [3] is 1.34e-11 M. For the same molecule, in experiment [4], the “22RV1 Cell depletion EC50” value was found to be 0.00631 nM, the “C4-2 Cell depletion EC50” value worked out at 0.0215 nM and the “TrampC2.PSMA Cell depletion EC50” value turned out to be 0.0115 nM.

B2: PSMA/CD3-002 (bispecific antibody, V domains shown)
VH 1: B1 VH 1
VH 2: B1 VH 2 with D99Y
VL: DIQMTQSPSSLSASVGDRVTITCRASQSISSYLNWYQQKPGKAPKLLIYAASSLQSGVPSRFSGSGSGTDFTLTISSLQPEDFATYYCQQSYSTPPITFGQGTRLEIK
notes: also called REGN4336; anti-PSMA x anti-CD3 bispecific antibody with anti-CD3 arm CD3-VH-G20
What is called Kd is the free concentration of one partner at which half of the binding sites on the other are occupied at equilibrium, for simple one-to-one binding. Read a high Kd as lower affinity. A word on the koff: it is a measure of how fast the partners let go of each other. Higher therefore signals a short-lived complex. Broadly, the kon is a measure of how fast the partners come together. Low readings indicate slower complex formation, high ones faster complex formation. Molecule B2 returned an EC50 in the experiment with human CD3 [1] of 210 nM. The molecule further registered an EC50 in experiment [2] of 2.09 nM. Further, the “T cell activation EC50 [M] (percent CD69+ of CD2+ T cells)” value with human CD3 [3] was 6.11e-12 M. In experiment [4], the “22RV1 Cell depletion EC50” value was determined as 0.00832 nM and the “C4-2 Cell depletion EC50” value was determined as 0.0139 nM. This molecule also gave a 50% effective concentration (EC50) with cynomolgus CD3 of 6140 nM. In experiment [5], this molecule registered a Kd of 334 nM, a T1/2 of 2 min, a koff of 0.00577 s⁻¹ and a kon of 17300 M⁻¹ s⁻¹.
